Results on one substance are retold here after US20170151309A1.

Read-outs that look alike come from different tables or passages of the source.

Holding throughout (test): cell-based or functional assay
Experiment [1] concerns the target adiponectin receptor 1 (human) (UniProt Q96A54).
Experiment [2] addresses adiponectin receptor 2 (human) (UniProt Q86V24).
The target in experiment [3] is adiponectin receptor 1 (human) (UniProt Q96A54). The source holds these as a separate data set.
The target of experiment [4] is adiponectin receptor 2 (human) (UniProt Q86V24). This is another data set of the same source.
adiponectin receptor 2 (human), sequence (Q86V24 whole entry): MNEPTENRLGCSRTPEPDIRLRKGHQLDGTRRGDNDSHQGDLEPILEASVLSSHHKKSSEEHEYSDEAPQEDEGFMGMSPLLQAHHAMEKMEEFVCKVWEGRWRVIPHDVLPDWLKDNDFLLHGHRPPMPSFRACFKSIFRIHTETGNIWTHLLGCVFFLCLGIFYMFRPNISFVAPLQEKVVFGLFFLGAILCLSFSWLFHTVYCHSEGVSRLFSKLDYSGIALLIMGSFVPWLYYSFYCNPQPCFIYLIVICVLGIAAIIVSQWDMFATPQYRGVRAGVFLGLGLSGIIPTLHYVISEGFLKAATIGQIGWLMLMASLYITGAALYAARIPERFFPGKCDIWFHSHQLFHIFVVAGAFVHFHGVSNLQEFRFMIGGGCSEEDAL

adiponectin receptor 1 (human), sequence (Q96A54 whole entry): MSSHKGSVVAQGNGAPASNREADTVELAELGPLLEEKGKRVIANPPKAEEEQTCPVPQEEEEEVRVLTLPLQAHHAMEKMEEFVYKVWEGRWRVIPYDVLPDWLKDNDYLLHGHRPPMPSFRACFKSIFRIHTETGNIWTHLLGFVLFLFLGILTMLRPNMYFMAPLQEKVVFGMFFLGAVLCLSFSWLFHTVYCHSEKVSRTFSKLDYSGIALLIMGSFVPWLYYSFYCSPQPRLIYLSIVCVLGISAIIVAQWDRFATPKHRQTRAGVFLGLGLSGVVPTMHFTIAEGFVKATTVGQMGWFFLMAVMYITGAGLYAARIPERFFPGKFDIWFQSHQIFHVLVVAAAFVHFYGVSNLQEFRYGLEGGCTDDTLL

With “adiponectin (from UniProt Q15848 19-244) (ligand)”, the EC50 of inhibition of PBL transendothelial migration (static adhesion assay) in experiment [1] is 0.94 µg/mL; in experiment [2] it was 0.94 µg/mL; in experiment [3], 40 nM; in experiment [4], 40 nM.
